# Data taken from patent publication US20180195086.
# Test system: T1, piggyBac transposase (Trichoplusia ni)
# T1 sequence: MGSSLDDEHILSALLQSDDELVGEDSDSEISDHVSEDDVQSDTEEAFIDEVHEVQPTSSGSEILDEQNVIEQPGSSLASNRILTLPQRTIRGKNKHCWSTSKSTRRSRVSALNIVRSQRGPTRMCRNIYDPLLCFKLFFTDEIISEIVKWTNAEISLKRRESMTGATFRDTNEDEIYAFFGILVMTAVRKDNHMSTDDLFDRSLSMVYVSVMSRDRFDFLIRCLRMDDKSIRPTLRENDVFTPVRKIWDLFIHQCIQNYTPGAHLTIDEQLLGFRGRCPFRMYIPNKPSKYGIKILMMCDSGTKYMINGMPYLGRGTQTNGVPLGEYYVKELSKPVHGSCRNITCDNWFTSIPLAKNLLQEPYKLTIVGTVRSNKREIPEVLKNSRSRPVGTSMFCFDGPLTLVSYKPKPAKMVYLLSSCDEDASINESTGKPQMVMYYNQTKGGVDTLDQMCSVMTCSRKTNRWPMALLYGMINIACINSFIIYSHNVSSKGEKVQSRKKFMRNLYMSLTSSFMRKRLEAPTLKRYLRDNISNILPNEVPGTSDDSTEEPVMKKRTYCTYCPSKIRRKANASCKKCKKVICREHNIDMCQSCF
# Experiment: cell_activity
# Settings: RFP+ HEK-293 at 28 days
sequence,measurement,value
CCCTAGAAAGATAGTCTGCGTAAAATTGACGCATGCATGCGTCAATTTTACGCATGATTATCTTTAACGTACGTCACAATATGATTATCTTTCTAGGG (double strand),activity,0.72%
